In assay [1] the test system is E253D mutant strain (hetR). Also on record: method as in PMID 21942265. Conditions: in vivo; cited from earlier work.
In another assay the test system is HetR. Conditions: cited from earlier work. From the text: Heterocyst pattern was first speculated to be controlled by a pentapeptide RGSGR (designated as PatS5), a motif which was identified first as the C-terminal five residues of PatS[16], and later within a putative ketoacyl reductase HetN[17].
The target of assay [2] is T1, HetR double mutant D270A/D278A (Nostoc sp., UniProt P27709, D270A/D278A).
T1 construct: 15 times (150 or 750 μM) to that of the full-length protein or 40 times (2 mM) to that of HetRHood; six-histidine tag (N); made in house; host or cells: Escherichia coli Rosetta (DE3)
T1 sequence (P27709 whole entry D270A/D278A): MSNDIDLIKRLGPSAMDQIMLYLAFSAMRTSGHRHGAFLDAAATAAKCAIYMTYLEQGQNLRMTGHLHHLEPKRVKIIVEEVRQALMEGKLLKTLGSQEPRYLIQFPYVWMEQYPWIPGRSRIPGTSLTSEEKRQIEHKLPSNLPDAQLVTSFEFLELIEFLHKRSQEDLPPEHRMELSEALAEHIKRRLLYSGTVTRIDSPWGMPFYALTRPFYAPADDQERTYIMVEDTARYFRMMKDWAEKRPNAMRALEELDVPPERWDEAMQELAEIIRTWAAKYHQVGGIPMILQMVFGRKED
In words: ITC binding of PatS6 to HetR double mutant D270A/D278A. More on the design: species or system Anabaena sp. PCC 7120. Conditions: 25 °C, 1 M NaCl, 5% (v/v) glycerol, 10 mM Tris-Cl, pH 7.8, protein 50 μM, PatS6 750 μM. As to the method:
(§1) The selenium-methionine-labeled HetR (SeMet HetR) was expressed in E. coli strain B834 (DE3) (Novagen, Madison). Transformed cells were first cultured in 2 × YT medium at 37 °C overnight, then harvested and washed twice with the M9 medium. Then the cells were cultured in SeMet medium (M9 medium with 50 mg/l SeMet and other essential amino acids at 50 mg/l) to an OD600 nm of approximately 1.0. The following steps in protein expression and purification were the same as those for the native protein. Site-directed mutagenesis was performed using the QuickChange site-directed mutagenesis kit (Stratagene, La Jolla) with the plasmid encoding the wild-type HetR as the template. The mutant protein was expressed, purified and stored in the same manner as the wild-type protein.
(§2) The related Kd values are
(§3) calculated and shown above the figures. ND stands for “not detectable”.

The next assay addresses T2, HetR mutant E253A (Nostoc sp., UniProt P27709, E253A).
T2 construct: 15 times (150 or 750 μM) to that of the full-length protein or 40 times (2 mM) to that of HetRHood; six-histidine tag (N); made in house; host or cells: Escherichia coli Rosetta (DE3)
In words: ITC binding of PatS6 to HetR mutant E253A. More on the design: species or system Anabaena sp. PCC 7120. Conditions: 25 °C, 1 M NaCl, 5% (v/v) glycerol, 10 mM Tris-Cl, pH 7.8, protein 50 μM, PatS6 750 μM. On the procedure:
as §1, §2, §3

Assay [3] concerns the target PatS6 (Nostoc sp. PCC 7120). The following applies: cited from earlier work.
Assay [4] has as its target PatS5 (Nostoc sp. PCC 7120). Conditions: cited from earlier work.
For another assay, the target named is T3, HetR R223W (Anabaena sp. PCC 7120, UniProt P27709 1-299, R223W).
T3 construct: HetR of Anabaena sp; PCC 7120, point mutant made from the plasmid of wild-type HetR; source: E. coli, purified in the same manner as the wild-type protein
T3 sequence (looked up): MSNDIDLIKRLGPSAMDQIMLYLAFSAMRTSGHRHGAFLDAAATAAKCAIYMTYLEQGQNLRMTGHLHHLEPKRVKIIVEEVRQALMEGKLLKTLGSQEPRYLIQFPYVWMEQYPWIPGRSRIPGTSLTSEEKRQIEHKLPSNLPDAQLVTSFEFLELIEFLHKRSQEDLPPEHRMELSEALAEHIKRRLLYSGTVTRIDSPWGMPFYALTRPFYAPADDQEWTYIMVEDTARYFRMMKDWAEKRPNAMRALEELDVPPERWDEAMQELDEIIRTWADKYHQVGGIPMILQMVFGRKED
In words: ITC; iTC200, 25 °C; protein in the sample cell (10 or 50 μM), PatS6 in the syringe (150 or 750 μM; 2 mM for HetR_(Hood)); 1 M NaCl, 5% (v/v) glycerol, 10 mM Tris-Cl, pH 7.8. Conditions: both partners purified. (In ITC the heat of successive injections is recorded.)

Assay [5] has as its target T4, HetR (wild type, full-length) from Anabaena sp. PCC 7120 (Anabaena sp. PCC 7120, UniProt P27709 1-299).
T4 construct: HetR, transcription factor of Anabaena sp; PCC 7120; DBD 1-98, flap domain 99-216, hood domain 217-299; Intertwined homodimer in the crystal with 21-bp hetP promoter DNA; A SeMet-labelled form (E. coli B834) was used for phasing only; also called wild-type HetR; full-length HetR; source: E. coli Rosetta (DE3), purified (Ni-NTA, Superdex 75)
T4 sequence (looked up): T3 sequence (looked up) with W223R
The assay is described as above. The following applies: both partners purified.

A further assay deals with T5, HetR E254A (Anabaena sp. PCC 7120, UniProt P27709 1-299, E254A).
T5 construct: HetR of Anabaena sp; PCC 7120, point mutant made from the plasmid of wild-type HetR; source: E. coli, purified in the same manner as the wild-type protein
T5 sequence (looked up): T3 sequence (looked up) with W223R, E254A
The assay is described as above. The following applies: both partners purified.

Another assay concerns the target T6, HetR D270A (Anabaena sp. PCC 7120, UniProt P27709 1-299, D270A).
T6 construct: HetR of Anabaena sp; PCC 7120, point mutant made from the plasmid of wild-type HetR; source: E. coli, purified in the same manner as the wild-type protein
T6 sequence (looked up): T3 sequence (looked up) with W223R, D270A
The description is as above. Conditions: both partners purified.

Another assay has as its target T7, HetR D256A (Anabaena sp. PCC 7120, UniProt P27709 1-299, D256A).
T7 construct: HetR of Anabaena sp; PCC 7120, point mutant made from the plasmid of wild-type HetR; source: E. coli, purified in the same manner as the wild-type protein
T7 sequence (looked up): T3 sequence (looked up) with W223R, D256A
The assay is described as above. The following applies: both partners purified.

The target in assay [6] is T8, HetR hood domain (Asp219-Asp299), HetR_(Hood) (Anabaena sp. PCC 7120, UniProt P27709 219-299).
T8 construct: HetR of Anabaena sp; PCC 7120, individual hood domain, residues Asp219-Asp299; Entwined dimer in the crystal; four molecules (two dimers) in the asymmetric unit; source: E. coli Rosetta (DE3), purified (Ni-NTA, Superdex 75)
T8 sequence (looked up): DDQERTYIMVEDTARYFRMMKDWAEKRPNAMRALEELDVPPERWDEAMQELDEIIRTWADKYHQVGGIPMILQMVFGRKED
The assay is described as above. The following applies: both partners purified.

The next assay concerns the target T9, HetR D278A (Anabaena sp. PCC 7120, UniProt P27709 1-299, D278A).
T9 construct: HetR of Anabaena sp; PCC 7120, point mutant made from the plasmid of wild-type HetR; source: E. coli, purified in the same manner as the wild-type protein
T9 sequence (looked up): T3 sequence (looked up) with W223R, D278A
Described as above. The following applies: both partners purified.

Substitutions are numbered along the chain they refer to.

T2 sequence (P27709 whole entry E253A): as the sequence (P27709 whole entry D270A/D278A) above, with E253A, A270D, A278D counted along it

As for “RGSGR [PatS5, pentapeptide RGSGR, C-terminal five residues of PatS]”, the “sensitivity of E253D mutant strain to PatS5” value in assay [1] is given as “drastically reduced sensitivity to PatS5”. In addition, in the assay with HetR, the “effect of PatS5 binding on DNA-binding capacity of HetR” value was “may abolish the DNA-binding capacity of HetR”. The “molecules bound per HetR homodimer” value in the assay on HetR (in vitro binding assays) is “two”.

For the molecule `N=C(N)NCCC[C@H](NC(=O)CNC(=O)[C@H](CO)NC(=O)CNC(=O)[C@H](CCCNC(=N)N)NC(=O)[C@@H](N)CCC(=O)O)C(=O)O` [PatS6], the “binding affinity towards D270A/D278A” value in assay [2] is listed as “no detectable binding affinity”. Besides, the “PatS6-binding affinity towards E253A” value at HetR mutant E253A was “totally abolished the PatS6-binding affinity”.

Broadly, the Kd is the concentration at which binding is half-saturated. HetR (from UniProt P27709): the Kd in assay [3] is 7 nM; in assay [4], 227 nM.

B1: PatS6 (PatS-derived hexapeptide ERGSGR) (peptide)
peptide: ERGSGR
notes: PatS-derived hexapeptide; RGSGR is the C-terminal five residues of PatS of Anabaena sp; PCC 7120; source: synthetic peptide (GL Biochem, Shanghai)
B1: the dissociation constant Kd was found to be 2350 nM with HetR R223W; 12 nM in assay [5]; 91 nM with HetR E254A; 2250 nM in the assay with HetR D270A; 427 nM with HetR D256A; 24000 nM in [6]. In the assay with HetR D278A, this molecule returned a dissociation constant Kd of 1630 nM.

The values are drawn from PMC4649674, “Structural insights into HetR−PatS interaction involved in cyanobacterial pattern formation” (Scientific Reports, 2015).
